In paper PMC9441717 (The Journal of Cell Biology, 2022):

Legend:
Experiment in all cases: pull-down
His-tagged STX8 (1-210) = biological target: T1, His-tagged STX8 (1-210) (human, UniProt Q9UNK0 1-210)
T1 sequence: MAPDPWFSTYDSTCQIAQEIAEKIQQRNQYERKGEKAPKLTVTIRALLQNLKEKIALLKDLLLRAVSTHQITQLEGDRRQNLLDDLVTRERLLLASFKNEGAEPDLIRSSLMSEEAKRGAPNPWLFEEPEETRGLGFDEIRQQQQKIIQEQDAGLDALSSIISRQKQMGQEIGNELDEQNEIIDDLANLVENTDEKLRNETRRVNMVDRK

His-tagged STX7 (1-236) = biological target: T2, His-tagged STX7 (1-236) (human, UniProt O15400 1-236)
T2 sequence: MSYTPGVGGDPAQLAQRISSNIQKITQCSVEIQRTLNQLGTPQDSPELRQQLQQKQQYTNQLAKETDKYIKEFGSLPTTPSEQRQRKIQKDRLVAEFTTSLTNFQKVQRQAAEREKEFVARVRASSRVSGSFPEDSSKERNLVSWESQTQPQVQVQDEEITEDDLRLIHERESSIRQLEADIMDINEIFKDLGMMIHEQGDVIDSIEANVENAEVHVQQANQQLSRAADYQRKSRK

His-tagged VTI1B (1-204) = biological target: T3, His-tagged VTI1B (1-204) (human, UniProt Q9UEU0 1-204)
T3 sequence: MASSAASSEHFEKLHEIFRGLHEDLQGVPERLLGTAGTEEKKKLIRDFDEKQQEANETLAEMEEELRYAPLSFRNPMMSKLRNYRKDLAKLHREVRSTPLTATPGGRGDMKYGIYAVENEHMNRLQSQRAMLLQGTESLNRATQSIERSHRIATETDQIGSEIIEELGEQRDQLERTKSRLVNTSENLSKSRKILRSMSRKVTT

Measured: binding result

B1: GST-tagged VAMP4 (1-115) (domain or fragment)
chain: MPPKFKRHLNDDDVTGSVKSERRNLLEDDSDEEEDFFLRGPSGPRFGPRNDKIKHVQNQVDEVIDVMQENITKVIERGERLDELQDKSESLSDNATAFSNRSKQLRRQMWWRGCK
binds: His-tagged STX8 (1-210) | His-tagged STX7 (1-236) | His-tagged VTI1B (1-204)
